Test results reported in publication PMC2860377.

System: CSCC[C@H](N)C(=O)Nc1ccc2c(C)cc(=O)oc2c1
Test: purified protein
Details: Fe(II) form, 10 μM FeCl2

## MtMetAP1a (Mycobacterium tuberculosis H37Rv)
  Km: 161 µM
